The results in this text go back to publication PMC4417188, “Molecular crowding enhances facilitated diffusion of two human DNA glycosylases”.

In data set [1] the target is T1, hUNG catalytic domain (Homo sapiens, UniProt P13051 94-313). Kind of data set: stopped-flow 2-AP fluorescence (koff/kon). The following applies: 2'-beta-fluoro-2'-deoxyuridine (Ubeta), 2-aminopurine adjacent, paired with T, 20 mM HEPES pH 7.5, 3 mM EDTA, 1 mM DTT, 0.002% Brij 35, 22 mM total Na+, with or without PEG 8K, temperature not stated for binding assays.
Data set [2] has as its target T1, hUNG catalytic domain. Kind of data set: fluorescence anisotropy; 20% PEG 8K; 20 mM HEPES pH 7.5, 3 mM EDTA, 1 mM DTT, 0.002% Brij 35, 22 mM total Na+; with or without PEG 8K; temperature not stated for binding assays. The following applies: protein: recombinant; label: 5'-fluorescein (FAM); (complement implied by Watson-Crick pairing). In general terms: In fluorescence polarisation assays a small probe gives low polarisation when free and higher when bound to something large.

In data set [3] the target is T1, hUNG catalytic domain. Briefly: fluorescence anisotropy; dilute buffer; 20 mM HEPES pH 7.5, 3 mM EDTA, 1 mM DTT, 0.002% Brij 35, 22 mM total Na+; with or without PEG 8K; temperature not stated for binding assays. The following applies: protein: recombinant; label: 5'-fluorescein (FAM); (complement implied by Watson-Crick pairing).

T1 sequence (P13051 94-313): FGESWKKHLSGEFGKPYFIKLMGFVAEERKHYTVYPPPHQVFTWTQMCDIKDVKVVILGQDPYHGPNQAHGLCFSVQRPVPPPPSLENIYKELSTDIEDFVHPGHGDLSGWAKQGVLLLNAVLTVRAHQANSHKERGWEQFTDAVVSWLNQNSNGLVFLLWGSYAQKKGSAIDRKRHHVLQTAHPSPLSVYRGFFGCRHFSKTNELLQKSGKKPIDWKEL

Regarding “DS specific 19mer duplex (2-AP next to Ubeta)”, the dissociation constant (Kd) (as a rule, the equilibrium constant for the complex coming apart) with hUNG catalytic domain [1] (5% PEG 8K) was found to be 0.31 nM; with hUNG catalytic domain [1] (10% PEG 8K), 0.2 nM; in the data set with hUNG catalytic domain [1] (15% PEG 8K), 0.7 nM; in the data set with hUNG catalytic domain [1] (20% PEG 8K, fast phase koff used) it was 1.2 nM; with hUNG catalytic domain [1] (dilute buffer, text of Methods gives 0.3 nM) it was 0.4 nM.

B1: DN nonspecific 15mer duplex (dsDNA)
DNA 1: AGGCGCATAGTCGCA
DNA 2: TGCGACTATGCGCCT
As for B1, the Kd with hUNG catalytic domain [2] was found to be 2300 ± 500 nM; with hUNG catalytic domain [3], 1300 ± 500 nM.
